Consider 15 molecules from patent US20120196335A1, “LIGF-TYPE TRANSFORMANTS FOR BIOCONVERSION OF LIGNIN-DERIVED COMPOUNDS” (priority 2010, published 2012).

The labels stand for the following.
B1: ligE: S. paucimobilis beta-etherase, positive control, GenBank BAA02032.1, SEQ ID NO:1 (protein)
chain: MARNNTITLYDLQLESGCTISPYVWRTKYALKHKGFDIDIVPGGFTGILERTGGRSERVPVIVDDGEWVLDSWVIAEYLDEKYPDRPMLFEGPTQKNLMKFLDNWLWSTAVGPWFRCYILDYHDLSLPQDRDYVRWSREQWFLGGQRLEDVQAGREDRLPLVPPTLEPFRRILAETKWLGGDQPNFADYSALAVFLWTASVARTPPLTEDDPLRDWLDRGFDLFDGLGRHPGMNPLFGLKLREGDPEPFVRQTGPAGAGGQALNKGPQTTKMPPRVAEKAD
B2: LigF: S. paucimobilis beta-etherase, positive control, GenBank BAA02031.1, SEQ ID NO:513 (protein)
chain: MTLKLYSFGPGANSLKPLATLYEKGLEFEQVFVDPSKFEQHSDWFKKINPRGQVPALWHDGKVVTESTVICEYLEDVFPESGNSLRPADPFKRAEMRVWTKWVDEYFCWCVSTIGWAFGIKAIAQKMSDEEFEEHINKNVPIPEQQLKWRRARNGFPQEMLDEEFRKVGVSVARLEETLSKQDYLVDTGYSLADICNFAIANGLQRPGGFFGDYVNQEKTPGLCAWLDRINARPAIKEMFEKSKREDLLKRQNEKVA
B3: LigG: S. paucimobilis glutathione-eliminating glutathione S transferase, ligG gene product (protein)
chain: MSGASARSLGKGSAPPGPVPEGQIRVYSMRFCPFAQRTLMVLKAKGIRHEIININLKNKPEWFFEKNPFGLVPVLENTQGHLITESVITCEYLDEAYPEKKLFPDDPYEKACQKMTFELFSKVPSLVTSFIRAKRKEDHPGIKEELKKEFSKLEEAMANKRTAFFGGNSLSMIDYLIWPWFQRLEALELNECIDHTPKLKLWMATMQEDPVASSHFIDAKTYRDYLSLYLQDSPEACDYGL
B4: ligE1: N. aromaticivorans beta-etherase polypeptide, glutathione S-transferase-like protein, GenBank ABD26841.1, SEQ ID NO:101 (protein)
chain: MAANNTITFYDLALSTGATISPFVWATKYALKHKGFDLDVVPGGFTGILERTGGKTERLPAIVDDGEFVLDSWGIVEYLDAKYPDRPVLIPHESVAATLKALDNWFWNAAVGPWMFCFCQDYRDLSLPQDHEYVTHSREKMLGRKLEEVQAGREERLPKISAALEPLRAALAQHQWLGGSSPNYADYRIMGGILFTASVCKTPVLANDDPLRDWIERCLDLYGGLGRHPGLFPLFGLEQREGDPDLFNRAAGQGGIYKRNTGPESTRAETQRITEGMKK
B5: LigF2: N. aromaticivorans beta-etherase polypeptide, glutathione S-transferase-like protein, GenBank ABD27301.1, SEQ ID NO:541 (protein)
chain: MALKYYHAEPLANSLKSMVPLKEKGLAYESIYVDLHKFEQHQPWFTAINPEGQVPVLDHDGTIITHTTVINEYLEDAFPDAQPADAPLRPRDPVGAARMRYWNKFIDEHVMNYVSMHGWHRMVGVIARNIASGDFEKLLESIPLPDQRKKWATARSGFSEADLANATAKIEYALDKVEKQLGETKWLAGDTYTLADINFYSHCGAMVERMFPEMEVARRAPRLCEWRDRVAARPAVAEALKSEDRTAPGLRVWSGEVR
B6: ABD26530.1: N. aromaticivorans putative beta-etherase polypeptide LigF-1, SEQ ID NO:539 (protein)
chain: MVIPLGEDNTIMLKLYSFGPAANSMKPLLTVFEKGLDVEKHRLDPAKFEHHTDWFKAINPRGQVPALVDGDKVVTESTVICEYLEDEYPTEVALRPADSFGKAQMRIWTKWVDEYFCWCVSTIGWHRYVGNMVKSLSDAEFEEKVKAIPVIEQQVKWRRAREGFPQDMLDEEMRKIAYSVRKLDDHLADHEWLVPGQYTLADICNFAIANGMQFGFAELVNKQDTPHLVRWIEQINERPAVKQMFAQVELEKLGPRE
B7: ABD27309.1: N. aromaticivorans putative beta-etherase polypeptide LigF-3, SEQ ID NO:545 (protein)
chain: MDEVSLYHWEPNANSGKPMLALMEKGVPFSSHYIDMLQFDQHKPEYLAINPQGTIPAMTHNGQVLTESTAIMEYVNDRFDGPDLMPADAQDRWRVRWWMKFMDQWLGPSFSMIGWSVFVGPMVRQRDPAELAAAIDRIPLPERRTAWRKAINGDFSESEMAESRRRVGLGIAKLEEELGKRPYVGSNQYSLADINIFNSTYSLPISQPDLAGKDRTPNIMRWLKRVYTREAVKKTWAMGKTDLAHRYGLIMAEIEG

The first series deals with Saccharomyces cerevisiae.
Experiment: not given
As to conditions: each compound alone; cited from earlier work.
With `COc1ccc(C=O)cc1OC` [Veratraldehyde], the “antifungal activity against the yeast Saccharomyces cerevisiae” value (from here on “antifungal activity”) was “significant antifungal activities”.
Consider `O=C(O)C=Cc1ccccc1` [cinnamic acid], for which the “antifungal activity” value is on record as “significant antifungal activities”.
`O=C(O)/C=C/c1cccc(O)c1` [m-coumaric acid]: the “antifungal activity” value is on record as “significant antifungal activities”.
In the case of `O=C(O)/C=C/c1ccccc1O` [o-coumaric acid], the “antifungal activity” value was “significant antifungal activities”.
Regarding `O=C(O)/C=C/c1ccc(O)cc1` [p-coumaric acid], the “antifungal activity” value is “significant antifungal activities”.
In the case of `COc1cc(C(=O)O)ccc1O` [vanillic acid], the “antifungal activity” value is on record as “significant antifungal activities”.
Regarding `COc1cc(CCC(C)=O)ccc1O` [vanillylacetone], the “antifungal activity” value is on record as “significant antifungal activities”.

Tested on in the next series: not given
Experiment: not given
As to conditions: LigDFEG gene cluster, FIG. 2B; cited from earlier work.
With “LigD: S. paucimobilis C alpha-dehydrogenase, ligD gene product”, the “enzyme activity shown by gene product” value is “Cα-dehydrogenase activity”.
On to B1, for which the “enzyme activity shown by gene product” value is listed as “β-etherase activity”.
In the case of B2, the “enzyme activity shown by gene product” value is reported as “β-etherase activity”.
Regarding B3, the “enzyme activity shown by gene product” value is recorded as “glutathione lyase activity”.

Tested on in a further series: not listed separately
Kind of series: in vitro biochemical assay for beta-etherase activity on fluorescent substrate MUAV (clarified E. coli cell extracts). As to conditions: 0.1 mM MUAV substrate; E. coli cell extracts expressing the protein. An excerpt: The model substrate synthesis 150 for use in the biochemical screening for selective activity can be outsourced through a contract research organization (CRO). The enzyme discovery effort can initially be focused on identifying potential beta-etherase candidate genes identified through bioinformatic methods. […] The fluorescent substrate α-O-(β-methylumbelliferyl)acetovanillone (MUAV), for example, can be used in in vitro assays to identify beta-etherase function (Acme Biosciences, Mt. View, Calif.). The formation of 4 methylumbelliferone (4MU) upon hydrolysis of the aryl ether bond can be monitored by fluorescence, for example, at λex=365 nm and λem=450 nm (or 460 nm).
The enzyme screening 155 is done to identify novel etherases 160. […] Expression of the beta-etherase genes can be done in 5 ml or 25 ml samples of the recombinant E. coli strains in LB medium using induction with IPTG. Following induction, and cell harvest, cell pellets can be lysed using the BPER (Invitrogen) cell lysis system. […] The formation of 4 methylumbelliferone (4MU) upon hydrolysis of the aryl ether bond in MUAV can be monitored by fluorescence at λex=365 nm and λem=460 nm, and can provide quantitative measurement of beta-etherase function. Cell extracts of E. coli transformed with the S. paucimobilis ligE and ligF genes can be the assay positive controls. Test or unknown samples can include, for example, E. coli strains expressing putative beta-etherase genes from N. aromaticovorans.
This example describes a method for gene expression in E. coli, as well as beta-etherase biochemical assays. Expression of known and putative beta-etherase genes was performed using 5 ml cultures of the recombinant E. coli strains described herein in Luria Broth medium by induction of gene expression using isopropylthiogalactoside (IPTG) to a final concentration of 0.1 mM. Following induction, and cell harvest, the cells were disrupted using either sonication or the BPER (Invitrogen) cell lysis system.
In vitro reactions were performed in a total volume of 200 ul and contained: 25 mM TrisHCl pH 7.5; 0.5 mM dithiothreitol; 1 mM glutathione; 0.05 mM or 0.1 mM MUAV; 10 ul of clarified cell extract used to initiate the reactions. Following incubation for 2.5 hours at room temperature, a 50 ul sample of the reactions was terminated using 150 uL of 300 mM glycine/NaOH buffer pH 9. The formation of 4 methylumbelliferone (4MU) upon hydrolysis of the aryl ether bond was monitored by the increase in fluorescence at λex=360 nm and λem=450 nm using a Spectramax UV/visible/fluorescent spectrophotometer.
The total protein concentrations of the cell lysates were determined using the BCA reagent system for protein quantification (Pierce).
Induction might be also performed using IPTG concentrations in the range of 0.01-1 mM. Cell disruption might be also performed using toluene permeabilization, French pressure techniques, or using multiple freeze/thaw cycles in conjunction with lysozyme. Assay conditions might be varied to include TrisHCl at 10-150 mM concentrations and in the pH range of 6.5-8.5; 0-2 mM dithiothreitol; 0.05-2 mM glutathione; 0.01-5 mM MUAV substrate; 22-42° C. reaction temperatures. The biochemical assay might be performed as a fixed time point assay with reaction times ranging from 5 minutes-12 hours, or performed continuously without quenching with glycine/NaOH buffer to extract enzyme kinetic parameters.
On to B1, for which the “total activity (beta-etherase)” value is given as 7 rfu/ug.
On to B2, for which the “total activity (beta-etherase)” value was 558 rfu/ug.
The same measure, in the same setting: next, B4: 529 rfu/ug; B5: 1206 rfu/ug.

The same series, now with this note: MUAV substrate.
With B6, the “beta-etherase activity on the MUAV substrate (in words)” value (from here on “beta-etherase activity … (in words)”) is given as “beta-etherase activity”.
Regarding B4, the “beta-etherase activity … (in words)” value is “beta-etherase activity” and the “fold more efficient than S. paucimobilis ligE beta-etherase enzyme” value is “approximately 75 fold”.
In the case of B7, the “beta-etherase activity … (in words)” value is “beta-etherase activity”.
As for B5, the “beta-etherase activity … (in words)” value is “beta-etherase activity” and the “fold more efficient than S. paucimobilis LigF protein” value was “approximately 2 fold”.
